Test results: patent publication US20190204338A1, “Methods for the Characterisation of Interaction Sites on Target Proteins” (Phylogica Limited, priority 2012, published 2019)

Key:
Notch = assay: Heterologous reporter construct specificity test (Notch); assay type: cell-based; conditions: data not shown
From the text: (§1) Transfection of these Phylomers was not generally cytotoxic as assessed by cell viability using the Cell Titre Blue system (Promega) (data not shown). To initially assess their specificity for AP1 inhibition, we tested these hits against two heterologous reporter constructs designed to detect the activation of two distinct transcription factors, namely Notch and FOXO class Forkhead.

FOXO class Forkhead = assay: Heterologous reporter construct specificity test (FOXO class Forkhead); assay type: cell-based; conditions: data not shown
From the text: as §1

B1: 4G9: AP1-inhibitory Phylomer, SEQ ID NO: 6 (LKHRDYWVPL LYFFFVLITM ...), identified by phenotypic screening (protein)
chain: LKHRDYWVPLLYFFFVLITMFWDLYCHSGQYLYEARSLLPFYLFPFLIAALRIGDIVVDTRCRNVENLGGFERSAESSRYVQLSLYERQWFRLRYRAYGGNLRCLAGDLVENWRLWKEVNSKAAKDIDGAVMLRFFLPPRDLARLVTLLAALIAVIATLIITLAIV
modifications: Protein fragment of unknown organism
Effect on Notch reporter construct (Notch): generally inhibited all reporter constructs
Effect on FOXO class Forkhead reporter construct (FOXO class Forkhead): generally inhibited all reporter constructs
